Patent US20250101071A1 (PAUL EHRLICH INSTITUT BUNDESINSTITUT F R IMPFSTOFFE UND …, published 2025)

B1: recombinant human CD32a extracellular domain with C-terminal His-tag, biotinylated (H167R) (receptor)
chain: QAAAPPKAVLKLEPPWINVLQEDSVTLTCQGARSPESDSIQWFHNGNLIPTHTQPSYRFKANNNDSGEYTCQTGQTSLSDPVHLTVLSEWLVLQTPHLEFQEGETIMLRCHSWKDKPLVKVTFFQNGKSQKFSRLDPTFSIPQANHSHSGDYHCTGNIGYTLFSSKPVTITVQVPSMGSSSPMG
notes: also called CD32a-His; recombinant CD32a protein; not shown: C-terminal His-tag

Assays:
Experiment in all cases: SPR, Biacore T200, biotinylated CD32a on neutravidin chip, DARPin as analyte
DARPin 52.H6 = target: DARPin 52.H6
DARPin 53.C8 = target: DARPin 53.C8
DARPin 53.H3 = target: DARPin 53.H3
DARPin 53.2F11[TEV] = target: DARPin 53.2F11[TEV]
DARPin 53.D8 = target: DARPin 53.D8
DARPin 53.2.F11 = target: DARPin 53.2.F11
[1] = target: B1

Measured: Kd

B1
not listed: [1]
< 2 nM: all other assays above

B2: DARPin 53.A8 (designed binder)
chain: DLGKKLLEATRAGQDDEVRILMANGANVNATDEEGLTPLHLAALDGHLEIVEVLLKYGADVNADDMHGPTPLHLAAYAGHLEIVEVLLKYGADVNAYDCGGHTPLHLAARLGHLEIVEVLLKYGADVNAQDKFGKTPFDLAIDNGNEDIAEVLQKAA
< 2 nM: [1]
